Measurements reported in publication PMC7672080.

Tests used:
[1] = target: mCherry-tagged neuroligin-1 (UniProt Q99K10)
[2] = target: mCherry-tagged neuroligin-1 (UniProt Q99K10); remark: listed apart in the source

Chain of UniProt Q99K10 (Q99K10 46-843): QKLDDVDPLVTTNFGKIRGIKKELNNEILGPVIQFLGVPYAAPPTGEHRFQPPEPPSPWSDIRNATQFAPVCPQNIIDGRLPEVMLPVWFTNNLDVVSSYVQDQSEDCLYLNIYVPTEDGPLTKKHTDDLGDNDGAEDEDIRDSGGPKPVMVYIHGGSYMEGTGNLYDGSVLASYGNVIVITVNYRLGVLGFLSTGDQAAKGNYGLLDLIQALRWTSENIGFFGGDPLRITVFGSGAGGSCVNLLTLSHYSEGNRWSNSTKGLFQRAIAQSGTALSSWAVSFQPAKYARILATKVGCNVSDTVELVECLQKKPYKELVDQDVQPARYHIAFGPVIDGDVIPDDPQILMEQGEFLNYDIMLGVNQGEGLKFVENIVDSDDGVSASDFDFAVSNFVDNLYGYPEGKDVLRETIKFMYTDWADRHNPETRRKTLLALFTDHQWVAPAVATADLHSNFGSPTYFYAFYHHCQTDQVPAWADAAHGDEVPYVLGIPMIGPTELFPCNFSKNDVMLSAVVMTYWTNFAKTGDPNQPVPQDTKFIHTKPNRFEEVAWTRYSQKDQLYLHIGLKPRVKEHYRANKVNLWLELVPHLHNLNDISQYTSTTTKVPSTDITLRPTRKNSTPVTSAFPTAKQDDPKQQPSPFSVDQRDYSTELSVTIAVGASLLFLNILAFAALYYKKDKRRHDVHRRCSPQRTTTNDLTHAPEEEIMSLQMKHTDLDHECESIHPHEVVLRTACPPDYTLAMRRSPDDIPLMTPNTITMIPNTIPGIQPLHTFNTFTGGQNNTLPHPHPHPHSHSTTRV

enrichment of GFP-Nrx1β at cell–cell contacts between co-cultured COS-7 cells expressing GFP-Nrx1β and cells expressing Nlg1-mCherry (fluorescence microscopy) [1]: 3.9 | diffusion coefficient of single GFP-Nrx1β molecules inside the contact with a cell expressing Nlg1-mCherry (uPAINT single particle tracking at 50 Hz; Dout = 0.3 µm^2/s outside the contact) [2]: 0.04 µm^2/s
Substance: GFP-tagged neurexin-1β (from UniProt Q63373 47-468) (receptor)
